According to the supplement of paper PMC9170038:

Tests used:
[1] = system: MS2 coat protein; assay: apparent KD of MS2 coat protein; designed switch direction (-1 OFF switch, 1 ON switch): 1; higher = weaker reporter binding; settings: Eterna round: R98
Protocol: (§1)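 RNA-MaP: designed FMN/MS2 RNA switches (84 nt design region) are transcribed on-chip within common flanks and titrated with SNAP-549-labelled MS2 coat protein (about 1-3000 nM) in 100 mM Tris pH 7.5, 80 mM KCl, 4 mM MgCl2, without or with 200 uM FMN. Median apparent KD per design; activation ratio = KD,OFF / KD,ON.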

[2] = system: MS2 coat protein; assay: apparent KD of MS2 coat protein; higher = weaker reporter binding; settings: Eterna round: R101
Protocol: as §1

[3] = system: MS2 coat protein; assay: apparent KD of MS2 coat protein, switch OFF state (with FMN for OFF switches, without FMN for ON switches); designed switch direction (-1 OFF switch, 1 ON switch): 1; higher = weaker reporter binding; settings: FMN input: 0 or 200 uM; Eterna round: R93 (includes R88 designs)
Outline: (§2)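 In 100 mM Tris-HCl pH 7.5 with 80 mM KCl and 4 mM MgCl2, and without or with constant ligand, SNAP-549-labelled MS2 coat protein was titrated in twofold steps from 0.7 or 1.5 nM to 3 µM. Per-step times went from 0.8–1.5 h down to 10–20 min. The RNA switches were transcribed on-chip from Illumina sequencing clusters, and apparent KD is the per-design median of normalised cluster binding-curve fits.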

[4] = system: MS2 coat protein; assay: apparent KD of MS2 coat protein, switch ON state; designed switch direction (-1 OFF switch, 1 ON switch): 1; higher = weaker reporter binding; settings: FMN input: 0 or 200 uM; Eterna round: R93 (includes R88 designs)
Outline: as §2

| Sequence | apparent KD of MS2 coat protein ([1]; input ligand: FMN 200 uM) [µM] | apparent KD of MS2 coat protein ([1]; input ligand: none) [µM] | further results |
| --- | --- | --- | --- |
| UCACUCACGUCAGGAUAUGGAUCGGAAAACGAUCCAGAAGGGACCUGCAAACUUGAGGAUCACCCAGGUUCCAAUAACGAGUGA [SameSame 12 - Jieux - Same State NG 1] | 0.194 | 0.307 |  |
| GCCAACUUAUGAGGAUAUGGCACCUUAUUGGUGCCAGAAGGCAUGUCAAUUGACAUGAGGAUCACCCAUGUAUUAUAGUUGGCA [Fiskers NG1ss - 20 m2] | 0.112 | 0.724 |  |
| GCUGUCGCGUGAGGAUAUGGUCGGCAGUGCUGACCAGAAGGCAUGUCGAUAGACAUGAGGAUCACCCAUGUGGUUAGGGCGGCU [salish99_SSNG1_R02_015] | 0.464 | 0.491 |  |
| GUCACGGUUAAUUCCGUGACGCGCAAACCUUGAGGAUCACCCAAGGAUAUCGACGUCAAUGACGUCGAGAAGGUGGUUGAGCGC [#SharedSequence] (puzzle (switch architecture): Exclusion NG 3) |  |  | apparent KD of MS2 coat protein ([2]; input ligand: FMN 200 uM): 0.0956 µM |
| GGAUCGCUUGGAGGAUAUCCAACUAUCCUAGUUGGAGAAGGCCAAGCUACAGAGCUAAGCUUGGAAGUCACUUCGGAUCCACAC [pwkr ssNG1 F9.4.4] | 0.0392 | 0.0217 |  |
| UAGAUAUGGUGAGGAUAUGCAAAGGAUCACCUUGUAGAAGGCAUCAGGGUAGAAGGUGCAAGGAUCACCUGUAAGGAUAUAUCC [pwkr2 ssNG1 DX.32] | 0.448 | 1.67 |  |
| AUAAUAACUUGAGGAUAUCGAGUGGAAUACACUCGAGAAGGCAGGGAAACCUGAGGAUCACCCAGGUAAAUAAUAAUAAUAAUA [Same State NG1 - A3C, U17G Submission 1C] | 0.0227 | 0.0213 |  |
| GCAAAUGGGCGAGGAUAUGGGACGGGCCUAAACAGGGCACAUGAGGAUCACCCAUGUCACACGACCCAGAAGGCGCUAAGAACG [Bemave] | 0.144 | 0.399 |  |
| CGGGAUACGAAGGGCGAAAGCCCACAUGAGGAUCACCCAUGUAGAAGGCGGGCCGCAACGCGGCCCGAGGAUAUACAGUAUCCA [#my 5th design] (puzzle (switch architecture): Inverted Exclusion NG 3) |  |  | apparent KD of MS2 coat protein ([2]; input ligand: FMN 200 uM): 0.0105 µM; apparent KD of MS2 coat protein ([2]; input ligand: none): 0.00572 µM |
| AUCAGCUCGUCAGGAUAUACGUCACUGCGUCAGCAGUGUGGUAAGAUCACAUGAGGAUCACCCAUGUAGAAGGGACGAGCUGAU [#MiniMS2Turnoff - Ex NG2 #82] (puzzle (switch architecture): Exclusion NG 2) |  |  | apparent KD of MS2 coat protein ([2]; input ligand: FMN 200 uM): 0.273 µM; apparent KD of MS2 coat protein ([2]; input ligand: none): 0.0137 µM |
| CACAGGGAUUCAGGAUAUAUUAGCCGAGGCCGCGUAGAAGGGAAAUCCUGACAUGAGGAUCACCCAUGUUAACCCACCUUCCAU [Fingerlickinggood#3] | 0.0229 | 0.0273 |  |
| CGAGACACUUGAGGAUAUGCUCAGGAAUACUGAGCAGAAGGCAGGGAAACCUGAGGAUCACCCAGGUAACUGGAAAGUCUCGAA [Same State NG1 - A3C, U17G Submission 5A] | 0.019 | 0.0292 |  |
| GCCAUCGUAUGAGGAUAUGGCACCGAAACGGUGCCAGAAGGCAUGUCAAUAGACAUGAGGAUCACCCAUGUAUUAUCGAUGGCA [MatMod 1 - Jieux - Same State NG 1] | 0.0469 | 0.469 |  |
| GGUCGACCUCAAGGAUAUGGACUGCAAAGCAGUCCAGAAGGUGAGGAUCACCCAUCUACGGUCAGGAAACUGACCGAUCGACCA [#SharedSequence - ExNG1-6] (puzzle (switch architecture): Exclusion NG 1) |  |  | apparent KD of MS2 coat protein ([2]; input ligand: FMN 200 uM): 0.914 µM; apparent KD of MS2 coat protein ([2]; input ligand: none): 0.308 µM |
| GACGGAUUCUUAGGAUAUGCUCAGGAAUACUGAGCAGAAGGAAGAAUAACCUGAGGAUCACCCAGGUAAUACUGAACGUCAAUA [Same State NG1 - A3C, U17G Submission 9A] | 0.0237 | 0.0581 |  |
| AAAGAUUUUCAAGGAUAUGACUCCGAAACGGAGUCAGAAGGUGAGGAUCACCCACCUAGCUCAGCGUCGAAAGACGCUGAGCAA [#SharedSequence ExNG1 - 27] (puzzle (switch architecture): Exclusion NG 1) |  |  | apparent KD of MS2 coat protein ([2]; input ligand: FMN 200 uM): 0.103 µM; apparent KD of MS2 coat protein ([2]; input ligand: none): 0.0135 µM |

| Sequence | apparent KD of MS2 coat protein ([1]; input ligand: FMN 200 uM) [µM] | apparent KD of MS2 coat protein ([1]; input ligand: none) [µM] | further results |
| --- | --- | --- | --- |
| UAAAUAAAUCCUAGAGGAUCACCCUAGGAUAUGAGGCUGCACCUCGGAUAAUCCGAGGUGCAGCCUCAGAAGGAGGUUGAUAAA [#SharedSequence - SLExNG3: 6-2] (puzzle (switch architecture): Small Loop Exclusion NG 3) |  |  | apparent KD of MS2 coat protein ([2]; input ligand: FMN 200 uM): 0.0118 µM; apparent KD of MS2 coat protein ([2]; input ligand: none): 0.0105 µM |
| UUCAAAGGGUGAGGAUAUGCACAGGAUCACCGUGUAGAAGGCAUCAGGUAGAAGGUGCAGAGGAUCACCCUGUAAGGAUAUAUC [pwkr2 ssNG1 DX.15] | 0.719 | 1.02 |  |
| CCAAUAUAGUGAGGAUAUGCACAGGAUCACCGUGUAGAAGGCAUCAGGUAGAAGGUGCAGAGGAUCACCCUGUAAGGAUAUACA [pwkr2 ssNG1 DX.7] | 0.129 | 0.406 |  |
| GCAGAAGGUGCGGAGGAUCACCCUGUAAGGAUAUGCAUUAGCAAGGAUAUACAGAGGAUCACCCUGUAGAAGGUGCACUUCUGA [pwkr2 ssNG3 DX.8] | 2.12 | 0.85 |  |
| GGUGUUAACACAGGAUAUCUGCGUAAACAGCGCGGAGAAGGGUGGGUGACCAAGGACACAUGAGGAUCACCCAUGUACCCUUAA [Timadier] (puzzle (switch architecture): Same State NG 1) |  |  | apparent KD of MS2 coat protein ([2]; input ligand: FMN 200 uM): 0.184 µM; apparent KD of MS2 coat protein ([2]; input ligand: none): 0.0727 µM |
| GCUUGCGACGCAGGAUAUGGGUGCCUAAACACGAGGAUCACCCGUGUACAGGAAGCUAAAUGCUCUCAGAAGGGCGUCGCAGGC [United States 9 - Jieux - Same State NG 2] | 0.0175 | 0.0467 |  |
| AAUAAUCUUUAAGGAUAUGACUCCGAAACGGAGUCAGAAGGUGAGGAUCACCCAUCUAGCUCAGGGUCGAAAGACCCUGAGCAA [#SharedSequence - ExNG1-11] (puzzle (switch architecture): Exclusion NG 1) |  |  | apparent KD of MS2 coat protein ([2]; input ligand: FMN 200 uM): 0.101 µM; apparent KD of MS2 coat protein ([2]; input ligand: none): 0.0496 µM |
| GGUUGACGACAAUUACAUGAGGAUCACCCAUGUUGUGGGAUGCAGGAUAUGUGGUAUAUUAAUUAACAGAAGGGCAAUAAUUUU [JR_SSNG3_Sub062] | 0.051 | 0.0338 |  |
| GUAGCAUACCGAGGAUAUUCAUACCGGAAACGGACAUGAGGAUCACCCAUGUAAAUUCUAAAUUGGGAGAAGGCGGAAUGCUAC [Xeonanis 75 6] | 0.0466 | 0.41 |  |
| ACGUCCCGCAGAGGAUAUGUUGUUCGGCCUACAUGAGGAUCACCCAUGUCAAAGGGCUGAUCCCGACAGAAGGCUGAAGGAUAC [Qudiator] | 0.0248 | 0.0575 |  |
| CCCUUCAGAAGAGGGACAUGAGGAUCACCCAUGUAGGCUGCACAGGAUAUCGAUCGGAGGCGGUACGAGAAGGGUGAUGUCAUU [Riorrebi] | 0.0279 | 0.0362 |  |
| AAUAAUCAGGUAGGAUAUGCUCAGGAAUACUGAGCAGAAGGACUAGAAACCUGAGGAUCACCCAGGUAACUGGACCGGAAACGG [Same State NG1 - A3C, U17G Submission 6C] | 0.0423 | 0.0811 |  |
| UCCGCUAUCGCAGGAUAUUACAUGGGAAAGAAUACAUGAGGAUCACCCAUGUAAAAGAUCAUAAAUAAGAAGGGCGAUAGCGGA [Lame State 8 - Jieux - Same State NG 2] | 0.123 | 0.654 |  |
| AAAAACAUGGUGCAGGAUAUAUUAAUAGUCACAUGAGGAUCACCCAUGUUCAUAUAUAUGAACGAGUAGAAGGGCGAUGAAAAAA [Mat - Same state - Malcolm Mod - D110] |  |  | apparent KD of MS2 coat protein [3]: 0.541 µM; apparent KD of MS2 coat protein [4]: 0.181 µM |
| AUAUGAGCUAUGGAGGAUAUCCAUAACAAGACAUGAGGAUCACCCAUGUAAGAAAGAAAAGAAUGGGAGAAGGCCAUAGCUCAAU [SS 2 M46] |  |  | apparent KD of MS2 coat protein [3]: 0.0637 µM; apparent KD of MS2 coat protein [4]: 0.0379 µM |
| CUUAGGAAGAGAGAGGAUAUCCAAAGGAAAACAUGAGGAUCACCCAUGUAAAAGGUAGGAAAUUGGGAGAAGGCUCAAGAGAGAG [salish99-ss2-080] |  |  | apparent KD of MS2 coat protein [3]: 0.0318 µM; apparent KD of MS2 coat protein [4]: 0.026 µM |
